In patent publication US20070248536A1:
Values belong to the binder of their own block, whether it stands above or below them.

Assays:
human IgG Fc (human) [1] = experiment: SPR (BIACORE), value before the coupling to PE
human IgG Fc (human) [2] = experiment: concentration-dependent ELISA, IgG Fc coated, apparent KD
human IgG Fc (human) [3] = experiment: method not given; given for comparison with the ELISA value

Kd (human IgG Fc (human) [1]): 100 nM
Kd (human IgG Fc (human) [2]): 233 nM
B1: Affilin variation SPC1-A7_Cys (designed binder)
chain: MGLISFSEDRAFQGRRYMCLTDCPNLQPYFSRCNSINVWSGCWMIYERPNYQGHQYFLRRGEYPDYQQWMGLSDSIRSCCLIPPHSGAYRMKIYDRDELRGQMSELTDDCLSVQDRFHLTEIHSLNVLEGSWILYEMPNYRGRQYLLRPGEYRRFLDWGAPNAKVGSLRRVMDLYLESGGGGGGSCHHHHHHHHHH

Kd (human IgG Fc (human) [3]): 280 nM
B2: Affilin variation SPC1-A7BB (designed binder)
chain: MGLISFSEDRAFQGRRYMCLTDCPNLQPYFSRCNSINVWSGCWMIYERPNYQGHQYFLRRGEYPDYQQWMGLSDSIRSCCLIPPHSGAYRMKIYDRDELRGQMSELTDDCLSVQDRFHLTEIHSLNVLEGSWILYEMPNYRGRQYLLRPGEYRRFLDWGAPNAKVGSLRRVMDLYLEHHHHHH
